Laboratory results as given in IntAct's records for PubMed 16014621.

B1: Septum site-determining protein minD homolog, chloroplastic (Arabidopsis thaliana (Mouse-ear cress)), Q9MBA2 (parent)
chain: MASLRLFSTNHQSLLLPSSLSQKTLISSPRFVNNPSRRSPIRSVLQFNRKPELAGETPRIVVITSGKGGVGKTTTTANVGLSLARYGFSVVAIDADLGLRNLDLLLGLENRVNYTCVEVINGDCRLDQALVRDKRWSNFELLCISKPRSKLPMGFGGKALEWLVDALKTRPEGSPDFIIIDCPAGIDAGFITAITPANEAVLVTTPDITALRDADRVTGLLECDGIRDIKMIVNRVRTDMIKGEDMMSVLDVQEMLGLSLLGVIPEDSEVIRSTNRGFPLVLNKPPTLAGLAFEQAAWRLVEQDSMKAVMVEEEPKKRGFFSFFGG
partner: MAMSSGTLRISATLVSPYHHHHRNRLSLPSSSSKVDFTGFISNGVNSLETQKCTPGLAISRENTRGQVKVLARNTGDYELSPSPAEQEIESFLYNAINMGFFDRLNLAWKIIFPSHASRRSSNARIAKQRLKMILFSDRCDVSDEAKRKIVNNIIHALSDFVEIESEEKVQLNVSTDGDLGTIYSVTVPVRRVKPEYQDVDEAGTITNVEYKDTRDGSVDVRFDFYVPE

Variants of: B1
Details: with mine1_arath MINE1, Q9C4Z7

Row | effect of a mutation on the interaction | Variant
1 | decreasing interaction | K72A
